The test deals with preF^C (soluble RSV F A2 prefusion F in the Cav1 background with V185Y, K226Y, N428Y, L512V, L513V and Y519F, before crosslinking) (respiratory syncytial virus (RSV F A2) | not stated) (UniProt P03420). Description: cross-linking; dityrosine crosslinking reaction (Arthromyces ramosus peroxidase and H2O2) of the purified protein; reducing SDS-PAGE (TCEP, 95 °C), Coomassie stain, gel shift from monomer to trimer.

Broadly, the stoichiometry N is the number of molecules, sites or subunits per partner or assembly.

Consider “preF^C (soluble RSV F A2 prefusion F in the Cav1 background with V185Y, K226Y, N428Y, L512V, L513V and Y519F, before crosslinking) (from UniProt P03420 26-109) (natural protein)”, for which the stoichiometry N is 3.

(Values after publication PMC10940300.)
